# Experimental data published in article PMC3279363.
# “And” between values parts separate entries of the source, which are not always exact repeats. Identical values can stand only once.
# T1: nitrated major birch pollen allergen Bet v 1.0101 (Betula verrucosa), P15494
# T1 chain: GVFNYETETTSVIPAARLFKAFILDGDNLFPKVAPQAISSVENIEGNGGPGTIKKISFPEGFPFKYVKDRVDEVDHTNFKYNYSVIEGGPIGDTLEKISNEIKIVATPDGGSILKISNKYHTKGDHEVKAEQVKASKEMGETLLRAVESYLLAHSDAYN
# B1: nitrated major birch pollen allergen Bet v 1.0101, P15494 2-160 (natural protein)
# chain: T1 chain
# modifications: here or on the partner: nitrotyrosine: 58.1% of all tyrosine groups within one protein molecule were nitrated (tetranitromethane); all tyrosine residues nitrated to some extent; nitrotyrosine: 58.1% of all tyrosine groups within one protein molecule were nitrated (tetranitromethane); all tyrosine residues nitrated to some extent
# Biological target: T1, nitrated major birch pollen allergen …
# Assay: SEC + other: Western blot; data not shown; high performance size exclusion chromatography and Western blot analysis of Bet v 1 nitro
# Details: remark: other sources report otherwise
binder,measurement,value
B1,stoichiometry N,2 and 3
